# B1: General transcription factor IIH subunit 4 (Homo sapiens), Q92759 (parent)
# chain: MESTPSRGLNRVHLQCRNLQEFLGGLSPGVLDRLYGHPATCLAVFRELPSLAKNWVMRMLFLEQPLPQAAVALWVKKEFSKAQEESTGLLSGLRIWHTQLLPGGLQGLILNPIFRQNLRIALLGGGKAWSDDTSQLGPDKHARDVPSLDKYAEERWEVVLHFMVGSPSAAVSQDLAQLLSQAGLMKSTEPGEPPCITSAGFQFLLLDTPAQLWYFMLQYLQTAQSRGMDLVEILSFLFQLSFSTLGKDYSVEGMSDSLLNFLQHLREFGLVFQRKRKSRRYYPTRLAINLSSGVSGAGGTVHQPGFIVVETNYRLYAYTESELQIALIALFSEMLYRFPNMVVAQVTRESVQQAIASGITAQQIIHFLRTRAHPVMLKQTPVLPPTITDQIRLWELERDRLRFTEGVLYNQFLSQVDFELLLAHARELGVLVFENSAKRLMVVTPAGHSDVKRFWKRQKHSS
# partner: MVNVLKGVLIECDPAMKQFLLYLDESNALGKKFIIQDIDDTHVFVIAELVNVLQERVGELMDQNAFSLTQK
# Variants of: B1
# Conditions: with tf2h5_human GTF2H5, Q6ZYL4
row,Variant,effect of a mutation on the interaction
1,K438A;R439A,decreasing interaction
